Source: US20120282269A1 (Boehringer Ingelheim, published 2012)
Numbering of substitutions follows the chain as printed. “And” between values parts separate entries of the source, which are not always exact repeats. Identical values can stand only once.

T1: natural human IL-23 from activated THP-1 cells (human, UniProt P29460 23-328)
T1 sequence 1: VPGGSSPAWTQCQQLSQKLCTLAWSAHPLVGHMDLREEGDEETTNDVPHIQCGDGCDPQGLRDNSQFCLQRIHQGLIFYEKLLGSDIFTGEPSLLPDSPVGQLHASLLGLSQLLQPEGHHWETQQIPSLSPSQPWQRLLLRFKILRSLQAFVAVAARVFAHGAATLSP
T1 sequence 2: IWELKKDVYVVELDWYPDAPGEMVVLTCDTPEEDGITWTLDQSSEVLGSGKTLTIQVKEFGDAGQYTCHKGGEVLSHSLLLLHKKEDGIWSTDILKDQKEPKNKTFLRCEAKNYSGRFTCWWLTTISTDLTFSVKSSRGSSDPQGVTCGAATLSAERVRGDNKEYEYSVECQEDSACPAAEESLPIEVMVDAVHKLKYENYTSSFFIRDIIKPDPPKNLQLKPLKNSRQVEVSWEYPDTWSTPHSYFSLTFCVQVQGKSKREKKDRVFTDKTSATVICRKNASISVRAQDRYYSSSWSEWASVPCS

T2: recombinant human IL-23 (human, UniProt P29460 23-328)
T2 sequence 1: T1 sequence 1
T2 sequence 2: T1 sequence 2

B1: 15C11 (antibody, V domains shown)
VH: EVQLQQSGPVLVKPGASVKMSCKASGYTFTDYYMNWVKQSHGKSLEWIGVIIPYNGGTSYNQKFKGKATLTVDKSSSTAYMELNSLTSEDSAVYYCARDGHRWYFDVWGTGTTVTVSS
VL: DVVMTQTPLSLPVSLGDQASISCRSSQSLVHSNGNTYLHWYLQKPGQSPKLLIYKVSNRFSGVPDRFSGSGSGTDFTLKINRVEAEDLGVYFCSQSTHVPYTFGGGTQLEIK
B2: 43F5 (antibody, V domains shown)
VH: EVQLQQSGPELVKPGASVKISCRASGYSFTGYYMNWVKQSPEKSLEWIGEIIPTTGGTSYNQKFKAKATLTVDKSSSTAYMQLKSLTSEDSAVYYCARESGGFYWYFDVWGTGTTVTVSS
VL: B1 VL with T7S, Q43L, N81S, Q108K
B3: 34G3 (antibody, V domains shown)
VH: EFQLQQSGPELVKPGASVKISCKASGYSFTDYNMNWVKQSKGKSLEWIGVIIPNYGFTSYNQNFKGKATLTVDQSSSTAHMQLNSVTSEDSAVYYCVRDGGILLWYLDVWGTGTTVTVSS
VL: B1 VL with N81S, Q108K, K112N
B4: 73H10 (antibody, V domains shown)
VH: EVQLQQSGPELVKPGASVKMSCKASGYTFTRYVMHWVKQKPGQGLEWIGYINPYNDVTKYNEKFKGKATLTSDRSSSTAYMKLSSLTSEDSAVYYCARNWDVPYWGQGTLITVSA
VL: DIQMTQSPVFLSASVGETVTITCRASENIDSYLAWYQQKQGKSPQLLVFAARNLADGVPSRFSGSGSGTQYSLKINRMQSEDVARYYCQHYYSTPFTFGSGTKLEIE
B5: 74H3 (antibody, V domains shown)
VH: B4 VH with V33L, V57G, K63R, R74K, K82E, I111V
VL: DIQMTQSPASLSASVGETVIFTCRASENIDSYLAWYQQKQGKSPQLLVYAATNLADGVPSRFSGSGSGTQYSLKINSLQSEDVARYYCLHYYSTPFTFGSGTELEIK
B6: 18C4 (antibody, V domains shown)
VH: EVQLQQSGPEVVKPGASVKMSCKASGYTFTSSVIHWVKQKAGQGLEWIGYINPYNDGTKYNEKFKGKATLTSDRSSSTAYMELSSLTSEDSAVYYCTRRLDEAYWGQGTLVTVSA
VL: DIVMTQSPATLSVTPGDRVSLSCRASQSISEYLHWYQQKSHESPRLLIKYASQSISGIPSRFSGSGSGSDFTLSINSVEPEDVGVYYCQNGHSFPFTFGSGTKLEIK
B7: 24A5 (antibody, V domains shown)
VH: B6 VH with V11L, S31T, V33I, I34M, A41P, N55D, G57V, R74K, T97V, L100W
VL: B6 VL with D17N, E31D, D70N
B8: 18E5 (antibody, V domains shown)
VH: EVQLQQSGPELVKPGAAVKMSCKASGYTFTRYLIHWVKQKPGQGLEWIGYINPYNDGTKYNEKFKGKATLTSDKSSSTAYMELSSLTSEDSAVYYCTSNWDLDYWGQGTTLTVSS
VL: B6 VL with E31D, H34Y, Y50F, S63T, N76D, E81D, Y86F, Y87F, S100G
B9: Chimeric 22E2 (antibody, V domains shown)
VH: B6 VH with V11L, V33I, K40R, A41P, N55D, G57V, R74K, T97A, L100W, A103S
VL: B6 VL with E31V, H41P
B10: 31H9 (antibody, V domains shown)
VH: B8 VH with A17S, I34M, K59N, T97S, S98L, L102Y, D103A, T110L, L111V, S115A
VL: B6 VL with E31D, F96Y, S100G
B11: 20E8 (antibody, V domains shown)
VH: B6 VH with V11L, I34M, K59Q, R74K, S75F
VL: B6 VL
B12: 18D3 (antibody, V domains shown)
VH: B8 VH with A17S
VL: B6 VL with E31D, H34Y, Y50F, S63T, N76D, E81D, Y86F, Y87F, S100G
B13: 22E2 (antibody, V domains shown)
VH: B6 VH with V11L, V33I, K40R, A41P, N55D, G57V, R74K, T97A, L100W, A103S
VL: B6 VL with E31V, H41P
B14: 34D9 (antibody, V domains shown)
VH: EVQLQQSGPELVKPGASVKIPCKASGYTFTDYNMDWVKKSHGKSLEWIGDINPHNGGTIYNQKFKGKATLTVDKSSSTAHMELRSLTSEDTAVYYCARNYYGSSYGWYFDVWGTGTTVTVSS
VL: DIMMTQSHKFMSTSVGDRVSITCKASQDVGNAVVWYQQKPGQSPKLLIYWASTRHIGVPDRFTGSGSGTDFTLTITNVQSEDLADYFCQQYSSYLTFGAGTKLELK
B15: 27G8 (antibody, V domains shown)
VH: QVQLQQSDAELVKPGASVKISCKVSGYTFTDHTIHWMKQRPEQGLEWIGYIYPRDGYPKFNEKFKGKATLTADKSSSTAYMQLNSLTSEDSAVYFCARRPPYYAMDYWGQGTSVAVSS
VL: DIVLTQSPASLAVSLGQRATISCRASKSVSTSGYSYIHWYQQKPGQPPKFLIYLASNLDSGVPARFSGSGSGTDFTLNIHPVEEEDAATYYCQHSRELPYTFGGGTKLEIK
B16: 26F7 (antibody, V domains shown)
VH: EVQLQQSGPELVKPGASVKISCKASGYTFTDYYMNWVRQSHGESLEWIGDFNHNNDVITYNPKFKGKVTLTVEKSSTTAYMELRSLSSEDSAVYYCARGLRGYYAMDYWGQGTSVTVSS
VL: B15 VL with S30R, T31F, G33D, S35F, I37M, F50L, D59E, H94N
B17: Mouse antibody 6B8 (antibody, V domains shown)
VH: QVQLQQSDAELVKPGTSVKTSCKISGNTFTDQTIHWMKQRPEQGLEWIGYIYPRDDSPKYNENFKGKATLTADKSSSTAYMQLNSLTSEDSAVYFCAIPDRSGYAWFIYWGQGTLVTVSS
VL: DIVMTQSHKFLSTSVGDRVTITCKASRDVAIAVAWYQQKPGQSPKLLLFWASTRHTGVPDRFTGSGSRTDFTLTISNVQSEDLADYFCHQYSSYPFTFGSGTKLEIK
B18: 2D1 (antibody, V domains shown)
VH: QVQLKESGPGLVAPSQSLSITCTVSGFSLTTYAISWVRQSPGKGLEWLGVIWTGGGTKYNSALKSRLSISKDNSKSQVFLKMNSLQTDDTARYYCARKDYNYGGAMDYWGQGTSVTVSS
VL: DIVLTQSPGSLAVSLGQRATISCRTSESVYSYGQNFIHWYQQKPGQPPKLLIYRASNLESGIPARFSGSGSRTDFTLTMNPVEADDVATYYCQQTNEDPYTFGGGTKLEIR
B19: 9D12 (antibody, V domains shown)
VH: B18 VH with G10V, T30N, T31N, Y32F, S40P, V50A, K58N, A96V, N101S
VL: DIALTQSPASLAVSLGQRATISCRASETINFYGTSFMHWYQQKPGQSPKLLIYRASNLESGIPARFSGSGSRTDFTLTINPVEADDVATYYCQQTNEDPYTFGGGTKLEIK

Experiments:
[1] = molecular target: T1, natural human IL-23 from activated …; assay: cell-based or functional assay
[2] = molecular target: T2, recombinant human IL-23; assay: cell-based or functional assay

| IC50, inhibition of IL-17 production from IL-23 stimulated mouse splenocytes [1] | IC50, inhibition of IL-17 production from IL-23 stimulated mouse splenocytes [2] | Binder |
| --- | --- | --- |
| 0.232 nM | 0.126 nM | B1 |
| 8 nM | – | B2 |
| 0.027 nM and 0.025 nM | 0.336 nM | B3 |
| – | 1.41 nM | B4 |
| – | 1.35 nM | B5 |
| – | 0.471 nM | B6 |
| 0.085 nM and 0.031 nM | 0.022 nM and 0.037 nM | B7 |
| 0.009 nM and 0.013 nM | – | B8 |
| – | 0.1 nM | B9 |
| 2 nM | 0.96 nM | B10 |
| 0.438 nM and 0.561 nM | – | B11 |
| – | 0.234 nM | B12 |
| – | 0.061 nM and 0.13 nM | B13 |
| 0.456 nM | 0.51 nM | B14 |
| 5 nM | 0.235 nM | B15 |
| – | 0.027 nM | B16 |
| – | 0.013 nM | B17 |
| 2.34 nM and 1.91 nM and 1.6 nM | – | B18 |
| 0.281 nM and 0.138 nM | 0.059 nM | B19 |
